In PMC314469, “Protein Interaction Networks by Proteome Peptide Scanning” (PLoS Biology, 2004):

T1: amphyphisin SH3 (AMPH_HUMAN), P49418
T1 chain: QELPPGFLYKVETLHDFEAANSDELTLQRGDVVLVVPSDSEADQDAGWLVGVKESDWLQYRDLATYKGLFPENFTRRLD


Target: T1, amphyphisin SH3 (AMPH_HUMAN), P49418
Test: SPOT array

normalised SPOT signal, Boehringer light units (BLU); mean over the file's lines of this peptide | Binder
19.1 | PGPSPARPPAKPPE [Q14184 97-111]
40.1 | PGFSLKRPRGLSRS [Q99640 37-50]
8660 | PGVEPKRPSRPINL [Q9UN16 222-235]
33.4 | PGPPPGRPPGPPPG [Q9Y2W2 459-473]
48.3 | PGSLPSKPPPGPVP [Q8TEP0 205-219]
48.7 | PIQNIKRPYPGEVS [Q9H7J0 315-328]
45.1 | PGHSPRRPRPLGLS [Q16538 521-534]
81.5 | PKDYPLRPPKMKFI [Q99462 62-75]
414 | PGEHPGRPGRGGSV [Q13577 1110-1123]
31.8 | PGAGLRRPTYTPPS [O15209 277-290]
38.7 | PKERLRRPETSGIS [O75698 245-258]
656 | PGTGPWRPGRQRGA [Q9GZW5 233-246]
65.6 | PFHSLKRPRPPFAR [O75048 874-887]
9310 | PHSAPLRPPRELHA [Q9NVV2 32-45]
223 | PGTPPRRPASPSAL [O75833 33-46]
807 | PGVPPARPPPLTKV [Q9HCH0 869-883]
46.4 | PGGSPRRPPALAGP [P58401 8-21]
504 | PGRRPGRPPKFIRL [Q9NQV6 314-328]
50.3 | PGPVPPRPPAAEPP [Q9H3S7 1093-1107]
2030 | ARRPPPRPHRRAET [Q9NQE0 211-224]
35.3 | ARSYLRRPAVVYIG [O43188 617-630]

normalised SPOT signal, Boehringer light units (BLU); mean over the file's lines of this peptide | Binder
570 | PGGKPERPPKPGPP [P51511 339-353]
35.3 | PGTSPRRPSVVPSR [Q96D64 48-61]
853 | PGQGLRRPARPGPA [P78365 80-93]
28.1 | PFRALKRPLQFLGL [O00156 318-331]
442 | PGPSLRRPSRELDA [Q9NTN9 19-32]
227 | ARRPLARPIKRGDI [O94844 155-168]
2910 | PKISPQKPPRKDME [AAM49716 571-585]
2130 | PGNIPQRPDRLPMS [Q9P2I2 89-102]
169 | PHADPGRPERLVFK [Q9Y5X7 158-171]
44.4 | PGRAPRRPLLEGGG [Q9H6A9 285-298]
31.4 | PGLAPKRPLETGPR [Q96BF6 185-198]
75.3 | PHKRPRRPHQIADL [Q96FN8 185-198]
38.5 | PGPAPKRPRGGGAG [Q06587 167-180]
52.2 | PGDSPAKPPEGSAG [Q8WXD9 428-442]
4690 | PGQGPQRPRRPAKD [Q12984 75-88]
30.1 | PHHELRRPVLQRQT [Q9H6E1 62-75]
68.3 | PGPFPPRPPGPLGP [Q9BW18 356-370]
510 | PFGQLKRPRRNGLG [Q9NUE2 170-183]
748 | PGSGPPRPSRRLLD [O15427 206-219]
46.1 | PISVLRRPGANHEG [Q9Y2Z7 47-60]
25 | PGPGPRRPPWEGAD [Q96Q04 1263-1277]

target: endophilin SH3 (SH3G2_HUMAN), Q99962; test: SPOT array

normalised SPOT signal, Boehringer light units (BLU); mean over the file's lines of this peptide | Binder
194 | PGPSPARPPAKPPE [Q14184 97-111]
41.8 | PGFSLKRPRGLSRS [Q99640 37-50]
227 | PGVEPKRPSRPINL [Q9UN16 222-235]
924 | PGPPPGRPPGPPPG [Q9Y2W2 459-473]
22.8 | PGSLPSKPPPGPVP [Q8TEP0 205-219]
110 | PIQNIKRPYPGEVS [Q9H7J0 315-328]
2830 | PGHSPRRPRPLGLS [Q16538 521-534]
1880 | PKDYPLRPPKMKFI [Q99462 62-75]
31.7 | PGEHPGRPGRGGSV [Q13577 1110-1123]
171 | PGAGLRRPTYTPPS [O15209 277-290]
32.6 | PKERLRRPETSGIS [O75698 245-258]
156 | PGTGPWRPGRQRGA [Q9GZW5 233-246]
228 | PFHSLKRPRPPFAR [O75048 874-887]
13000 | PHSAPLRPPRELHA [Q9NVV2 32-45]
3750 | PGTPPRRPASPSAL [O75833 33-46]
10000 | PGVPPARPPPLTKV [Q9HCH0 869-883]
241 | PGGSPRRPPALAGP [P58401 8-21]
15700 | PGRRPGRPPKFIRL [Q9NQV6 314-328]
331 | PGPVPPRPPAAEPP [Q9H3S7 1093-1107]
2500 | ARRPPPRPHRRAET [Q9NQE0 211-224]
60.1 | ARSYLRRPAVVYIG [O43188 617-630]

normalised SPOT signal, Boehringer light units (BLU); mean over the file's lines of this peptide | Binder
4460 | PGGKPERPPKPGPP [P51511 339-353]
587 | PGTSPRRPSVVPSR [Q96D64 48-61]
1310 | PGQGLRRPARPGPA [P78365 80-93]
63.7 | PFRALKRPLQFLGL [O00156 318-331]
226 | PGPSLRRPSRELDA [Q9NTN9 19-32]
265 | ARRPLARPIKRGDI [O94844 155-168]
487 | PKISPQKPPRKDME [AAM49716 571-585]
360 | PGNIPQRPDRLPMS [Q9P2I2 89-102]
8.4 | PHADPGRPERLVFK [Q9Y5X7 158-171]
711 | PGRAPRRPLLEGGG [Q9H6A9 285-298]
1350 | PGLAPKRPLETGPR [Q96BF6 185-198]
58.2 | PHKRPRRPHQIADL [Q96FN8 185-198]
348 | PGPAPKRPRGGGAG [Q06587 167-180]
72.5 | PGDSPAKPPEGSAG [Q8WXD9 428-442]
5880 | PGQGPQRPRRPAKD [Q12984 75-88]
4.1 | PHHELRRPVLQRQT [Q9H6E1 62-75]
1930 | PGPFPPRPPGPLGP [Q9BW18 356-370]
67.8 | PFGQLKRPRRNGLG [Q9NUE2 170-183]
2310 | PGSGPPRPSRRLLD [O15427 206-219]
90.8 | PISVLRRPGANHEG [Q9Y2Z7 47-60]
523 | PGPGPRRPPWEGAD [Q96Q04 1263-1277]
